Experimental data: patent publication US20150376265A1 (Genentech, published 2015)
Numbering of substitutions follows the chain as printed.

Columns and labels:
[1] = target: T1, Complex I with gH W168C, on virions of HB1 - mutant viruses 2 and 5 (HCMV, UniProt P12824 24-743; P16832 31-278; P16837 28-171; F5HCP3 26-214; F5HET4 19-129); test: cell-based or functional assay
T1 chain 1: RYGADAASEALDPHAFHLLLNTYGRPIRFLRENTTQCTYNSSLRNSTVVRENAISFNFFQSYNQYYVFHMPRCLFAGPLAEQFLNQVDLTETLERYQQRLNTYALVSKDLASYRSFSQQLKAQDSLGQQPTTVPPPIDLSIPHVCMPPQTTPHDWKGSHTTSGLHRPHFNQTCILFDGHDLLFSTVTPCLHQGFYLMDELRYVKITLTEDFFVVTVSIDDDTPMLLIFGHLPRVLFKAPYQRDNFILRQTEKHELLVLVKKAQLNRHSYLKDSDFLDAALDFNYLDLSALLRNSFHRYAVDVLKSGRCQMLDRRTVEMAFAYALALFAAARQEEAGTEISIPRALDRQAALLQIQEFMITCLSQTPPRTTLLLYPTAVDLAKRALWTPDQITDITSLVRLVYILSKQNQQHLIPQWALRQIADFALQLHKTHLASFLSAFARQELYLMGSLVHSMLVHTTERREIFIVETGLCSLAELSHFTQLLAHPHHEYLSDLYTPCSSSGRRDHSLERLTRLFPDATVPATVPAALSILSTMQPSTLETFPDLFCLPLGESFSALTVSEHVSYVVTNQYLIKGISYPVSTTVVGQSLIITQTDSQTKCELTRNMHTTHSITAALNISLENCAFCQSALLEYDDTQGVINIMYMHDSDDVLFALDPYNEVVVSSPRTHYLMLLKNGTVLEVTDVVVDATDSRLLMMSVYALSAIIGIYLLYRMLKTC
T1 chain 2: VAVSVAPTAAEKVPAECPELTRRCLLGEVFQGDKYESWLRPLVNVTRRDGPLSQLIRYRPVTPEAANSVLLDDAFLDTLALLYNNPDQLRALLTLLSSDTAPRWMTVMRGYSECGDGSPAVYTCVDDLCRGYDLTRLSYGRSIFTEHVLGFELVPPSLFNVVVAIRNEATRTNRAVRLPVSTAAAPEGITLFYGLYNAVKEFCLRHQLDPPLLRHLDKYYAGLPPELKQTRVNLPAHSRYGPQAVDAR
T1 chain 3: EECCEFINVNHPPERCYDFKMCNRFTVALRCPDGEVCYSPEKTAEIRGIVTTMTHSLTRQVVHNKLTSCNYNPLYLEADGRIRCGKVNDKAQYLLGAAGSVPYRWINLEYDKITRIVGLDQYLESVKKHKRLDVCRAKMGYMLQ
T1 chain 4: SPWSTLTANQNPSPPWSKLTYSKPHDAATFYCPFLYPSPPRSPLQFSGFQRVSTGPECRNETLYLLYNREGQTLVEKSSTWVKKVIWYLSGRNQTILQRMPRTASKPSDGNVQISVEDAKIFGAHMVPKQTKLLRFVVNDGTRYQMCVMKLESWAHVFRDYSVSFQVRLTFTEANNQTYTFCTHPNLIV
T1 chain 5: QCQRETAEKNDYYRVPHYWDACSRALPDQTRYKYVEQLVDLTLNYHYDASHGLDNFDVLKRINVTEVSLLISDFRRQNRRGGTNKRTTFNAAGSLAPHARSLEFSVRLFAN

[2] = target: T2, Complex I with gH P171S, on virions of HB1 - mutant virus 3 (HCMV, UniProt P12824 24-743; P16832 31-278; P16837 28-171; F5HCP3 26-214; F5HET4 19-129); test: cell-based or functional assay
T2 chain 1: T1 chain 1 with C145W, P148S
T2 chain 2: T1 chain 2
T2 chain 3: T1 chain 3
T2 chain 4: T1 chain 4
T2 chain 5: T1 chain 5

B1: hu8G8 (lambda4 8G8 graft and hu8G8.VH1) (antibody, V domains shown)
VH: EVQLVQSGAEVKKPGASVKVSCKASGYTFTNYGMNWVRQAPGQGLEWIGWINTYTGEPTYADDFKGRVTITRDTSTSTAYLELSSLRSEDTAVYYCARSWYYVSNYWYFDVWGQGTLVTVSS
VL: SVLTQSPSASASLGASVKLTCTLSSQHSTYTIEWYQQQPGKGPRYLMKLKKDGSHSTGDGIPDRFSGSSSGADRYLTISNLQSEDEADYYCGVGDTIKEQFVYVFGGGTKLTVLG
notes: also called hu8G8 with VH1; Humanized 8G8 with VH1
hu8G8 EC50, neutralisation of HB1 - mutant virus 2, Data Set 1 [1]: 8 ng/mL | hu8G8 EC50, neutralisation of HB1 - mutant virus 2, Data Set 2 [1]: 6 ng/mL | hu8G8 EC50, neutralisation of HB1 - mutant virus 5, Data Set 2 [1]: 1 ng/mL | hu8G8 EC50, neutralisation of HB1 - mutant virus 3, Data Set 1 [2]: 1 ng/mL | hu8G8 EC50, neutralisation of HB1 - mutant virus 3, Data Set 2 [2]: 0.1 ng/mL
